Substitutions are numbered along the chain they refer to.
B1: Fcmut-18 (antibody, human IgG4 S228P, kappa)
heavy: QVQLVQSGAEVKKPGSSVKVSCKASGYSFSSYNIHWVRQAPGQGLEWMGYIAPFQGDSRYNQKFKGRVTITADKSTSTAYMELSSLRSEDTAVYYCARLNRGNSLDYWGQGTLVTVSSASTKGPSVFPLAPCSRSTSESTAALGCLVKDYFPEPVTVSWNSGALTSGVHTFPAVLQSSGLYSLSSVVTVPSSSLGTKTYTCNVDHKPSNTKVDKRVESKYGPPCPPCPAPEFLGGPSVFLFPPKPKDTLMISRTPEVTCVVVDVSQEDPEVQFNWYVDGVEVHNAKTKPREEQFNSTYRVVSVLTVLHQDWLNGKEYKCKVSNKGLSSIEKTISKAKGQPREPQVYTLPPSQEEMTKNQVSLTCLVKGFYPSDIAVEWESNGQPENNYKTTPPVLDSDGSFFLYSRLTVDKSRWQEGNVFSCSVMHEALHNHYTQKSLSLSLGK
light: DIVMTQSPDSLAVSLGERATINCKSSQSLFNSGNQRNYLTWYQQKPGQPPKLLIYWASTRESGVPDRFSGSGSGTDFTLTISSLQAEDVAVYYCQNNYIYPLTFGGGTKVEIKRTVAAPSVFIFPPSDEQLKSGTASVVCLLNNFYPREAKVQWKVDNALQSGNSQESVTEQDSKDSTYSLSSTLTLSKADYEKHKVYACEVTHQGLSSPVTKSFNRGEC
notes: IgG4-mut: deletion of 329 (EU index)
B2: Fcmut-23 (antibody, human IgG4 S228P, kappa, F234A L235A)
heavy: B1 heavy with F232A, L233A, S327G
light: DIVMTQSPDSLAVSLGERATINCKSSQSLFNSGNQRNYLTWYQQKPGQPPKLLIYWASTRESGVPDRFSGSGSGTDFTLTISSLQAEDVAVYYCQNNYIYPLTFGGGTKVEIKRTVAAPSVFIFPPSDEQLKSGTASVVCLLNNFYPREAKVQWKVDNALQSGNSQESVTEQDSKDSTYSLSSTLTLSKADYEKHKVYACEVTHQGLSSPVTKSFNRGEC
B3: Fcmut-22 (antibody, human IgG4 S228P, kappa, F234A L235A)
heavy: B1 heavy with F232A, L233A
light: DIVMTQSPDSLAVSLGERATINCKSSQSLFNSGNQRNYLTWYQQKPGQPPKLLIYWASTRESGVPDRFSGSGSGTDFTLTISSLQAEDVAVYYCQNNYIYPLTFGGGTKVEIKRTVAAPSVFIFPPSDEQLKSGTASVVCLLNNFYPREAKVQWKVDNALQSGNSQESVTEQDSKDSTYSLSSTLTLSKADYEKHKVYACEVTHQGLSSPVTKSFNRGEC
B4: Fcmut-19 (antibody, human IgG4 S228P, kappa)
heavy: B1 heavy with S327G
light: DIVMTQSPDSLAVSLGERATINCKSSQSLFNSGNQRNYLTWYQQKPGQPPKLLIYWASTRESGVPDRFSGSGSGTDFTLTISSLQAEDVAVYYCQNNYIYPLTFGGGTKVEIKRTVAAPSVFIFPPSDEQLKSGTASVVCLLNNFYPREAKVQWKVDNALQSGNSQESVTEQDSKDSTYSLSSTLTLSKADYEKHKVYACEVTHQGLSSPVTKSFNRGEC
notes: IgG4-mut: deletion of 329, G at 330 (EU index)
B5: Fcmut-12 (antibody, human IgG2, kappa)
heavy: QVQLVQSGAEVKKPGSSVKVSCKASGYSFSSYNIHWVRQAPGQGLEWMGYIAPFQGDSRYNQKFKGRVTITADKSTSTAYMELSSLRSEDTAVYYCARLNRGNSLDYWGQGTLVTVSSASTKGPSVFPLAPCSRSTSESTAALGCLVKDYFPEPVTVSWNSGALTSGVHTFPAVLQSSGLYSLSSVVTVPSSNFGTQTYTCNVDHKPSNTKVDKTVERKCCVECPPCPAPPVAGPSVFLFPPKPKDTLMISRTPEVTCVVVDVSHEDPEVQFNWYVDGVEVHNAKTKPREEQFNSTFRVVSVLTVVHQDWLNGKEYKCKVSNKGLPIEKTISKTKGQPREPQVYTLPPSREEMTKNQVSLTCLVKGFYPSDISVEWESNGQPENNYKTTPPMLDSDGSFFLYSKLTVDKSRWQQGNVFSCSVMHEALHNHYTQKSLSLSPGK
light: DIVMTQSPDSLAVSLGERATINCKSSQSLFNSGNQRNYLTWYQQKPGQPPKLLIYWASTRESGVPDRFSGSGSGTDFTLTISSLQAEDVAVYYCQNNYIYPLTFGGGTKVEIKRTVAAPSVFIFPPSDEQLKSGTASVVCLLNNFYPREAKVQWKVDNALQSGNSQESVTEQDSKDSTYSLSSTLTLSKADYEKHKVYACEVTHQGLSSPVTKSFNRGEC
notes: IgG2-mut: deletion of 329 and 330 (EU index)
B6: Fcmut-16 (antibody, human IgG2, kappa)
heavy: B5 heavy with V232A
light: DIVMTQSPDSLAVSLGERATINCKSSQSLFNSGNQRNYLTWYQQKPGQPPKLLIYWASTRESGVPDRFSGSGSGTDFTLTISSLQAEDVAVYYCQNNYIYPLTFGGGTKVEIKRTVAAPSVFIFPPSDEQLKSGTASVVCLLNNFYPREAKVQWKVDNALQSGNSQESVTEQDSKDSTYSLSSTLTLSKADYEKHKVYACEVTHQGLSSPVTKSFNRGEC
notes: IgG2-mut: A at 234, deletion of 329 and 330 (EU index)
B7: Fcmut-13 (antibody, human IgG2, kappa)
heavy: QVQLVQSGAEVKKPGSSVKVSCKASGYSFSSYNIHWVRQAPGQGLEWMGYIAPFQGDSRYNQKFKGRVTITADKSTSTAYMELSSLRSEDTAVYYCARLNRGNSLDYWGQGTLVTVSSASTKGPSVFPLAPCSRSTSESTAALGCLVKDYFPEPVTVSWNSGALTSGVHTFPAVLQSSGLYSLSSVVTVPSSNFGTQTYTCNVDHKPSNTKVDKTVERKCCVECPPCPAPPAAGPSVFLFPPKPKDTLMISRTPEVTCVVVDVSHEDPEVQFNWYVDGVEVHNAKTKPREEQFNSTFRVVSVLTVVHQDWLNGKEYKCKVSNKGLPAPIEKTISKTKGQPREPQVYTLPPSREEMTKNQVSLTCLVKGFYPSDISVEWESNGQPENNYKTTPPMLDSDGSFFLYSKLTVDKSRWQQGNVFSCSVMHEALHNHYTQKSLSLSPGK
light: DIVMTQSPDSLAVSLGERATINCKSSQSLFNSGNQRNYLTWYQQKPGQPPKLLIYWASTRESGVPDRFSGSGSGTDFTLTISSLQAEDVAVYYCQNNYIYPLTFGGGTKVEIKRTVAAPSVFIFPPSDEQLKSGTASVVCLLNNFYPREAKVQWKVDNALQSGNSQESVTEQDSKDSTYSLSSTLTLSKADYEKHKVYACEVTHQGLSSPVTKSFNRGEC
notes: IgG2-mut: A at 234 (EU index)
B8: Fcmut-20 (antibody, human IgG4 S228P, kappa)
heavy: QVQLVQSGAEVKKPGSSVKVSCKASGYSFSSYNIHWVRQAPGQGLEWMGYIAPFQGDSRYNQKFKGRVTITADKSTSTAYMELSSLRSEDTAVYYCARLNRGNSLDYWGQGTLVTVSSASTKGPSVFPLAPCSRSTSESTAALGCLVKDYFPEPVTVSWNSGALTSGVHTFPAVLQSSGLYSLSSVVTVPSSSLGTKTYTCNVDHKPSNTKVDKRVESKYGPPCPPCPAPEFLGGPSVFLFPPKPKDTLMISRTPEVTCVVVDVSQEDPEVQFNWYVDGVEVHNAKTKPREEQFNSTYRVVSVLTVLHQDWLNGKEYKCKVSNKGLSIEKTISKAKGQPREPQVYTLPPSQEEMTKNQVSLTCLVKGFYPSDIAVEWESNGQPENNYKTTPPVLDSDGSFFLYSRLTVDKSRWQEGNVFSCSVMHEALHNHYTQKSLSLSLGK
light: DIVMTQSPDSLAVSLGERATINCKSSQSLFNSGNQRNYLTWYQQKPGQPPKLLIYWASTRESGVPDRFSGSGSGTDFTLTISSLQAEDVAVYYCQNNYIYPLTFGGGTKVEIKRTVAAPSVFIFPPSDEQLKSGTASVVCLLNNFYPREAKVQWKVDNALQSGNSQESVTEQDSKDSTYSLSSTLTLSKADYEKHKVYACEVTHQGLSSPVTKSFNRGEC
notes: IgG4-mut: deletion of 329 and 330 (EU index)
B9: Fcmut-24 (antibody, human IgG4 S228P, kappa, F234A L235A)
heavy: B8 heavy with F232A, L233A
light: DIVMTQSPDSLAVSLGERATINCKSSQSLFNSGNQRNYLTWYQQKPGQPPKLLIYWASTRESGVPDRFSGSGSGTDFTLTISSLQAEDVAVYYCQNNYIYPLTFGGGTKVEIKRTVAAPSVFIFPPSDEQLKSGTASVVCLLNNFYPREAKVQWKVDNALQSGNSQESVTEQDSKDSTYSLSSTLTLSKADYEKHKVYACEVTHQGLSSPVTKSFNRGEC
notes: also called Fcmut-024
B10: Fcmut-10 (antibody, human IgG2, kappa)
heavy: QVQLVQSGAEVKKPGSSVKVSCKASGYSFSSYNIHWVRQAPGQGLEWMGYIAPFQGDSRYNQKFKGRVTITADKSTSTAYMELSSLRSEDTAVYYCARLNRGNSLDYWGQGTLVTVSSASTKGPSVFPLAPCSRSTSESTAALGCLVKDYFPEPVTVSWNSGALTSGVHTFPAVLQSSGLYSLSSVVTVPSSNFGTQTYTCNVDHKPSNTKVDKTVERKCCVECPPCPAPPVAGPSVFLFPPKPKDTLMISRTPEVTCVVVDVSHEDPEVQFNWYVDGVEVHNAKTKPREEQFNSTFRVVSVLTVVHQDWLNGKEYKCKVSNKGLAPIEKTISKTKGQPREPQVYTLPPSREEMTKNQVSLTCLVKGFYPSDISVEWESNGQPENNYKTTPPMLDSDGSFFLYSKLTVDKSRWQQGNVFSCSVMHEALHNHYTQKSLSLSPGK
light: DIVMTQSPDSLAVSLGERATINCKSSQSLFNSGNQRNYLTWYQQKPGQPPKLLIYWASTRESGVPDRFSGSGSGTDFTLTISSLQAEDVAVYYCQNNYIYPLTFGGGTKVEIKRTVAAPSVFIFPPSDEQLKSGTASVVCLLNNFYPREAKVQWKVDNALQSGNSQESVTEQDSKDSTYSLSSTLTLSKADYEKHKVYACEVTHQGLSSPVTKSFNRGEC
notes: IgG2-mut: deletion of 329 (EU index); anti-claudin18.2 variable regions of Fcmut-01
B11: Fcmut-14 (antibody, human IgG2, kappa)
heavy: B10 heavy with V232A
light: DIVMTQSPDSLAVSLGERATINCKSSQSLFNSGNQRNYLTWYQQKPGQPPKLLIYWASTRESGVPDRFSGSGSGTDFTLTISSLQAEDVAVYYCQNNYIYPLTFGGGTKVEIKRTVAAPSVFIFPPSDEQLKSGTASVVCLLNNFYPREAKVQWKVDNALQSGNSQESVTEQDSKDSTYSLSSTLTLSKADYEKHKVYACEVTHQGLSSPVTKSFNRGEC
notes: IgG2-mut: A at 234, deletion of 329 (EU index)
B12: Fcmut-15 (antibody, human IgG2, kappa)
heavy: B10 heavy with V232A, A326G
light: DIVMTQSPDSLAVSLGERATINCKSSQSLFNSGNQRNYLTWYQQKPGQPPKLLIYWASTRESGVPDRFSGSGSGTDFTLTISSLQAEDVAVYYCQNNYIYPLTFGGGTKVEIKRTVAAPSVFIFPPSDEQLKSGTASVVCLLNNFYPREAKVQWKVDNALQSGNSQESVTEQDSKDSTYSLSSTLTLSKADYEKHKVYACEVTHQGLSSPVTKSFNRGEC
notes: IgG2-mut: A at 234, deletion of 329, G at 330 (EU index)
B13: Fcmut-11 (antibody, human IgG2, kappa)
heavy: B10 heavy with A326G
light: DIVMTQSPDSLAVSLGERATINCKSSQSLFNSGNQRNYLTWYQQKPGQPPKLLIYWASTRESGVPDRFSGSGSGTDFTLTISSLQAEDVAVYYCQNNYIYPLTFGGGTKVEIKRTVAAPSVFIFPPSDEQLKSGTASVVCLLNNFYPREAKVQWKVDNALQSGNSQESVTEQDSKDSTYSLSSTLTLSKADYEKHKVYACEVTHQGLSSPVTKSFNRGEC
notes: IgG2-mut: deletion of 329, G at 330 (EU index)

target: T1, human C1q (human, UniProt P02745 23-245; P02746 28-253; P02747 29-245); test: BLI (Octet), biotinylated antibody on SA sensor
T1 construct: Bought C1q (Complement Technology); also called C1q antigen
T1 sequence (P02745 23-245 limits assumed, chain 1 of 3): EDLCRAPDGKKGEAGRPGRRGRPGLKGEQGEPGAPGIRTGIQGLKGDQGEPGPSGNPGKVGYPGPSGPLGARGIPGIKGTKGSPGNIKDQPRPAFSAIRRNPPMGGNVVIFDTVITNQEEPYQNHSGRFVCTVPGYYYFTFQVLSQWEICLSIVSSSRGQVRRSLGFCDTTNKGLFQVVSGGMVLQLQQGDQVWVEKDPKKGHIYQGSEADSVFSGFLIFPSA
T1 sequence (P02746 28-253 limits assumed, chain 2 of 3): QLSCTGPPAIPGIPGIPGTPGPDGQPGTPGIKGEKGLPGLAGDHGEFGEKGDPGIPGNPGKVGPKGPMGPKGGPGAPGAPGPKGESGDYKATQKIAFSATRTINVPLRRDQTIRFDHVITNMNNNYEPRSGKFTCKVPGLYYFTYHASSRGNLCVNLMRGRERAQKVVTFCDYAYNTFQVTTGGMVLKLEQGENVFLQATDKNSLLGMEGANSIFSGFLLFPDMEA
T1 sequence (P02747 29-245 limits assumed, chain 3 of 3): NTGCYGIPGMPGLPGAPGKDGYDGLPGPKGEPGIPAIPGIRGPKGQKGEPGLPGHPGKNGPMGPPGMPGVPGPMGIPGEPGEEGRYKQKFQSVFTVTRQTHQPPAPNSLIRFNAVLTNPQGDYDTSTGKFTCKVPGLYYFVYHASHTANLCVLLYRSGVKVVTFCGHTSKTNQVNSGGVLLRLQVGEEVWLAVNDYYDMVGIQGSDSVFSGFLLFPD
Experimental: The antibody was diluted to approximately 100 nM, and C1q (Δ099, Complement Technology) was diluted to 40 nM.
Detection was conducted using Fortebio Octet Red96e, and the sensors were arranged according to the positions of the samples. […] After the experiment was completed, KD values were analyzed using ForteBio Octet analysis software, the coordinate axis data were derived, and Graphpad Prism 8 software was used for plotting.

binding result | Binder
no binding (tested: C1q 40 nM) | B1
no binding (tested: C1q 40 nM) | B2
no binding (tested: C1q 40 nM) | B3
no binding (tested: C1q 40 nM) | B4
no binding (tested: C1q 40 nM) | B5
no binding (tested: C1q 40 nM) | B6
no binding (tested: C1q 40 nM) | B7
no binding (tested: C1q 40 nM) | B8
no binding (tested: C1q 40 nM) | B9
no binding (tested: C1q 40 nM) | B10
no binding (tested: C1q 40 nM) | B11
no binding (tested: C1q 40 nM) | B12
no binding (tested: C1q 40 nM) | B13

Source: US20240228579A1 (Innovent, published 2024)
